According to patent publication US6617117:

T1: human GST-SAPK4
T1 chain: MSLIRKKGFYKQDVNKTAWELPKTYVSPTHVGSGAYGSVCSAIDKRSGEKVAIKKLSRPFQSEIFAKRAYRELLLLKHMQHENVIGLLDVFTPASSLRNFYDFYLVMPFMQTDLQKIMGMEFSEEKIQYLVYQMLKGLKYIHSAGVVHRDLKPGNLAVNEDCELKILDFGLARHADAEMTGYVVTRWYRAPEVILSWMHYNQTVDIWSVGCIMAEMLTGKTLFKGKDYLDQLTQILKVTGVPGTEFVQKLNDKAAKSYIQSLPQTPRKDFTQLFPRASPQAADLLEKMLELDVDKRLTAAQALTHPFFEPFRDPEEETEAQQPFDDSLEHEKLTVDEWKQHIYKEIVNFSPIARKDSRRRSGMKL

T2: MalE-Mpk2, the Xenopus homologue of SAPK2a, P47812
T2 chain: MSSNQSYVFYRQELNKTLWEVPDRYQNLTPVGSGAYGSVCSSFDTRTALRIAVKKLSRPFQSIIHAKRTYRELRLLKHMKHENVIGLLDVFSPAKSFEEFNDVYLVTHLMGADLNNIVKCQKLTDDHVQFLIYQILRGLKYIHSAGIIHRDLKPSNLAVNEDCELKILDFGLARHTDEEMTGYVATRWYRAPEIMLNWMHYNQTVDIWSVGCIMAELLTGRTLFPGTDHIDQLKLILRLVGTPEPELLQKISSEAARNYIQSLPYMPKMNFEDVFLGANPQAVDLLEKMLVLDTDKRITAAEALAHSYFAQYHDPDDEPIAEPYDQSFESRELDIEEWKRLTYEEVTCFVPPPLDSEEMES

T3: rat GST-SAPK3, Q63538
T3 chain: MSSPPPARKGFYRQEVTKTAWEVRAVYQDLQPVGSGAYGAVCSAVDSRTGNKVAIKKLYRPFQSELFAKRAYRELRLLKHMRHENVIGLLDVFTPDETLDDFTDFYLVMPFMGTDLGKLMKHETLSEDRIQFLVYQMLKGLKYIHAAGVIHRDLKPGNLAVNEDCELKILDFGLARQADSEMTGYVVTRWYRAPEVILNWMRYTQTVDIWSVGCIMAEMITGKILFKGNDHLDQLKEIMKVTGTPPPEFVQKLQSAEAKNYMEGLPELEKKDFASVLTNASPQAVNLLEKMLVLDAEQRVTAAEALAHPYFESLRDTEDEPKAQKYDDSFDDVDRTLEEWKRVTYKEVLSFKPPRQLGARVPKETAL

T4: GST-cJun(1-194), P05412
T4 chain: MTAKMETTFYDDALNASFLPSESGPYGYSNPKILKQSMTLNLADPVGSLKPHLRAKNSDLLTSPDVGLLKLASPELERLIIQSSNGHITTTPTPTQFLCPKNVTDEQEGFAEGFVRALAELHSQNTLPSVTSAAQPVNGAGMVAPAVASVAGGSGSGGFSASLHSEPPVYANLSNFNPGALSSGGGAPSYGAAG

T5: GST-ATF2(19-96), P15336
T5 chain: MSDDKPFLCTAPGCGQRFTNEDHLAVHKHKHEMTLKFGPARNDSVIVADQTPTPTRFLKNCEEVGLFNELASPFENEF

T6: GST-SAP1(267-431), P28324
T6 chain: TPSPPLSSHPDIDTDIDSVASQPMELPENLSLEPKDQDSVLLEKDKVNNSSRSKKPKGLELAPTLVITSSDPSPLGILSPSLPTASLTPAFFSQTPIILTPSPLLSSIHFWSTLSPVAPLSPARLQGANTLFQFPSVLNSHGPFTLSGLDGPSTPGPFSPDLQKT

B1: SKK3 purified from rabbit skeletal muscle (protein)
chain: MSQSKGKKRNPGLKIPKEAFEQPQTSSTPPRDLDSKACISIGNQNFEVKADDLEPIMELGRGAYGVVEKMRHVPSGQIMAVKRIRATVNSQEQKRLLMDLDISMRTVDCPFTVTFYGALFREGDVWICMELMDTSLDKFYKQVIDKGQTIPEDILGKIAVSIVKALEHLHSKLSVIHRDVKPSNVLINTLGQVKMCDFGISGYLVDSVAKTIDAGCKPYMAPERINPELNQKGYSVKSDIWSLGITMIELAILRFPYDSWGTPFQQLKQVVEEPSPQLPADKFSAEFVDFTSQCLKKNSKERPTYPELMQHPFFTVHESKATDVASFVKLILGD
B2: human GST-SAPK2b (protein)
chain: MSGPRAGFYRQELNKTVWEVPQRLQGLRPVGSGAYGSVCSAYDARLRQKVAVKKLSRPFQSLIHARRTYRELRLLKHLKHENVIGLLDVFTPATSIEDFSEVYLVTTLMGADLNNIVKCQALSDEHVQFLVYQLLRGLKYIHSAGIIHRDLKPSNVAVNEDCELRILDFGLARQADEEMTGYVATRWYRAPEIMLNWMHYNQTVDIWSVGCIMAELLQGKALFPGSDYIDQLKRIMEVVGTPSPEVLAKISSEHARTYIQSLPPMPQKDLSSIFRGANPLAIDLLGRMLVLDSDQRVSAAEALAHAYFSQYHDPEDEPEAEPYDESVEAKERTLEEWKELTYQEVLSFKPPEPPKPPGSLEIEQ
B3: human GST-SAPK4 (protein)
chain: MSLIRKKGFYKQDVNKTAWELPKTYVSPTHVGSGAYGSVCSAIDKRSGEKVAIKKLSRPFQSEIFAKRAYRELLLLKHMQHENVIGLLDVFTPASSLRNFYDFYLVMPFMQTDLQKIMGMEFSEEKIQYLVYQMLKGLKYIHSAGVVHRDLKPGNLAVNEDCELKILDFGLARHADAEMTGYVVTRWYRAPEVILSWMHYNQTVDIWSVGCIMAEMLTGKTLFKGKDYLDQLTQILKVTGVPGTEFVQKLNDKAAKSYIQSLPQTPRKDFTQLFPRASPQAADLLEKMLELDVDKRLTAAQALTHPFFEPFRDPEEETEAQQPFDDSLEHEKLTVDEWKQHIYKEIVNFSPIARKDSRRRSGMKL
B4: rat GST-SAPK3 (protein)
chain: MSSPPPARKGFYRQEVTKTAWEVRAVYQDLQPVGSGAYGAVCSAVDSRTGNKVAIKKLYRPFQSELFAKRAYRELRLLKHMRHENVIGLLDVFTPDETLDDFTDFYLVMPFMGTDLGKLMKHETLSEDRIQFLVYQMLKGLKYIHAAGVIHRDLKPGNLAVNEDCELKILDFGLARQADSEMTGYVVTRWYRAPEVILNWMRYTQTVDIWSVGCIMAEMITGKILFKGNDHLDQLKEIMKVTGTPPPEFVQKLQSAEAKNYMEGLPELEKKDFASVLTNASPQAVNLLEKMLVLDAEQRVTAAEALAHPYFESLRDTEDEPKAQKYDDSFDDVDRTLEEWKRVTYKEVLSFKPPRQLGARVPKETAL
B5: MalE-Mpk2, the Xenopus homologue of SAPK2a (protein)
chain: MSSNQSYVFYRQELNKTLWEVPDRYQNLTPVGSGAYGSVCSSFDTRTALRIAVKKLSRPFQSIIHAKRTYRELRLLKHMKHENVIGLLDVFSPAKSFEEFNDVYLVTHLMGADLNNIVKCQKLTDDHVQFLIYQILRGLKYIHSAGIIHRDLKPSNLAVNEDCELKILDFGLARHTDEEMTGYVATRWYRAPEIMLNWMHYNQTVDIWSVGCIMAELLTGRTLFPGTDHIDQLKLILRLVGTPEPELLQKISSEAARNYIQSLPYMPKMNFEDVFLGANPQAVDLLEKMLVLDTDKRITAAEALAHSYFAQYHDPDDEPIAEPYDQSFESRELDIEEWKRLTYEEVTCFVPPPLDSEEMES

Columns and labels:
human GST-SAPK4 = molecular target: T1, human GST-SAPK4
[1] = molecular target: T2, MalE-Mpk2, the Xenopus homologue of …
rat GST-SAPK3, Q63538 = molecular target: T3, rat GST-SAPK3, Q63538
GST-cJun(1-194), P05412 = molecular target: T4, GST-cJun(1-194), P05412
GST-ATF2(19-96), P15336 = molecular target: T5, GST-ATF2(19-96), P15336
[2] = molecular target: GST-Elk1(307-428) [GST: P08515]
[3] = molecular target: GST-SAP2(221-417) [GST: P08515]
[4] = molecular target: MAPKAP-K2 (substrate of Table 1, construct not stated), P49137
Sequence of MAPKAP-K2 (substrate of Table 1, construct not stated), P49137 (P49137 46-400): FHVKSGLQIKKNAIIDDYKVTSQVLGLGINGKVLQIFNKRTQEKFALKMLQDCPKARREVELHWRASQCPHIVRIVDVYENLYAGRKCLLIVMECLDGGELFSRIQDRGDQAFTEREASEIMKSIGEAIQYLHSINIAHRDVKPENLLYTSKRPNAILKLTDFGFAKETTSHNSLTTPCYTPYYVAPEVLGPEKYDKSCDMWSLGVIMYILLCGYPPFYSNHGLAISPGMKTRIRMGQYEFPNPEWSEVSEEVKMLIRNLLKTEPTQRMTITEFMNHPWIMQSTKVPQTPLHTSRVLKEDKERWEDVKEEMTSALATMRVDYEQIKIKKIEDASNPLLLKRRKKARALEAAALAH

[5] = molecular target: T6, GST-SAP1(267-431), P28324
[6] = molecular target: GST-MAPKAP-K2(5-400), P49137
Sequence of GST-MAPKAP-K2(5-400), P49137 (P49137 5-400): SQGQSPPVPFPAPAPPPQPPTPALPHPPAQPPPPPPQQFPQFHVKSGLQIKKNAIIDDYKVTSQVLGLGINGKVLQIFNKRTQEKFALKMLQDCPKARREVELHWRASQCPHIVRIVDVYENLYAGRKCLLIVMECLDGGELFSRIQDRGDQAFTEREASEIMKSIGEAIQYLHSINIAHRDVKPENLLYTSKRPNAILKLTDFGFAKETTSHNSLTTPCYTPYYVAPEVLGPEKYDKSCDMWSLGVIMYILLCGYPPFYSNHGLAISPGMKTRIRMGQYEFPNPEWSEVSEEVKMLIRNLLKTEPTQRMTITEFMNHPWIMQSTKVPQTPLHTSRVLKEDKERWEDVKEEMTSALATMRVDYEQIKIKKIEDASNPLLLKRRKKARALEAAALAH

[7] = molecular target: GST-MAPKAP-K2(46-400), P49137
Sequence of GST-MAPKAP-K2(46-400), P49137 (P49137 46-400): as the sequence (P49137 46-400) above

Sequence of GST-MAPKAP-K3, Q16644 (Q16644 whole entry, looked up): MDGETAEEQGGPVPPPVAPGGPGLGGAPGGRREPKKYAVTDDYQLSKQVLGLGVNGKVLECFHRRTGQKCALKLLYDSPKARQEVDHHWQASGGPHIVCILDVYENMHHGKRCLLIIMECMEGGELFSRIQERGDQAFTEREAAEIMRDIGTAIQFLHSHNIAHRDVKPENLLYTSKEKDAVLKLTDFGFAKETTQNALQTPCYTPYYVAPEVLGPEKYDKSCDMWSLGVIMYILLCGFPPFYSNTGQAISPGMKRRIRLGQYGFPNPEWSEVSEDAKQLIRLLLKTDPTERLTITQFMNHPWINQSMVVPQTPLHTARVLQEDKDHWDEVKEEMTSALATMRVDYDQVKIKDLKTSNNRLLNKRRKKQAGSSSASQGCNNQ

| Protein | rate of phosphorylation of substrate (1 µM) relative to MBP (% of rate with MBP) (GST-cJun(1-194), P05412) | rate of phosphorylation of substrate (1 µM) relative to MBP (% of rate with MBP) (GST-MAPKAP-K3, Q16644) | rate of phosphorylation of substrate (1 µM) relative to MBP (% of rate with MBP) (GST-ATF2(19-96), P15336) | rate of phosphorylation of substrate (1 µM) relative to MBP (% of rate with MBP) [2] | rate of phosphorylation of substrate (1 µM) relative to MBP (% of rate with MBP) [3] | rate of phosphorylation of substrate (1 µM) relative to MBP (% of rate with MBP) [4] | rate of phosphorylation of substrate (1 µM) relative to MBP (% of rate with MBP) [5] | rate of phosphorylation of substrate (1 µM) relative to MBP (relative to MBP (=100)) (GST-cJun(1-194), P05412) | phosphorylation sites on ATF2 (32P, mutants, phosphoamino acid analysis) (GST-ATF2(19-96), P15336) | rate of phosphorylation of substrate (1 µM) relative to MBP (relative to MBP (=100)) (GST-ATF2(19-96), P15336) | rate of phosphorylation of substrate (1 µM) relative to MBP (relative to MBP (=100)) [2] | rate of phosphorylation of substrate (1 µM) relative to MBP (relative to MBP (=100)) [5] | other results |
| --- | --- | --- | --- | --- | --- | --- | --- | --- | --- | --- | --- | --- | --- |
| B1 |  |  |  |  |  |  |  |  |  |  |  |  | activation of SAPK4 (MBP kinase activity) in vitro (human GST-SAPK4): SAPK4 was activated in vitro by a highly purified preparation of SKK3 from skeletal muscle; phosphorylation stoichiometry at plateau (human GST-SAPK4): reached a plateau at ˜1.6 mol/mol subunit; rate of activation compared with SAPK2a (human GST-SAPK4): occurred two- to three-fold more slowly than that of SAPK2a; activation of SAPK2 (MBP kinase activity) in vitro [1]: The rate of activation of SAPK3 by SKK3 was similar to that of SAPK2; 32P phosphorylation, phosphoamino acid analysis (GST-SAPK4(D168A)): the inactive SAPK4 mutant could only be phosphorylated on tyrosine and not on threonine; activation of SAPK3 (MBP kinase activity) in vitro (rat GST-SAPK3, Q63538): SAPK3 was activated in vitro by a highly purified preparation of SKK3 from skeletal muscle |
| B2 | 7 | 66 | 62 | 136 | 18 | 83 | 27 |  |  |  |  |  |  |
| B3 | 6 | 18 |  | 175 | 8 | 28 | 62 |  |  |  |  |  | activation of MAPKAP-K3 (initial rate and half-time for maximal activation) (GST-MAPKAP-K3, Q16644): 20 times slower; activation of MAPKAP-K2 (initial rate and half-time for maximal activation) [6]: 20 times slower |
| B4 |  | 20 |  |  |  | 25 |  | 2 | SAPK2 and SAPK3 phosphorylate ATF2 at Thr69 and Thr-71, and that only SAPK3 phosphorylates Ser-90 | 107 | 181 | 108 | activation of MAPKAP-K3 (initial rate and half time for maximal activation) (GST-MAPKAP-K3, Q16644): 20 times slower; activation of MAPKAP-K2 (initial rate and half time for maximal activation) [7]: 20 times slower; rate of phosphorylation of substrate (1 µM) relative to MBP (relative to MBP (=100)) [3]: 20 |
| B5 | 4 | 87 | 40 | 90 |  | 90 | 25 | 2 | SAPK2 and SAPK3 phosphorylate ATF2 at Thr69 and Thr-71, and that only SAPK3 phosphorylates Ser-90 | 86 | 122 | 55 |  |
